This note sets out measurements from patent US20230183314A1 (ARO BIOTHERAPEUTICS, published 2023).

For orientation: Kd means the equilibrium constant for the complex coming apart. As a reminder, the IC50 is the midpoint of a concentration-inhibition curve.

Residue numbers refer to the chain shown, from its start. Read-outs that look alike come from different tables or passages of the source.

Test [1] has as its target T1, cynomolgus monkey PSMA-Fc fusion (human; cynomolgus monkey, PSMA is a glycosylated homodimer. Only one subunit is given.).
T1 construct: also called cyno PSMA Fc; cynoPSMA-Fc; not shown: Human IgG1 Fc domain, which sits N-terminal of the PSMA ECD, and the junction with the Prescission protease site
T1 chain: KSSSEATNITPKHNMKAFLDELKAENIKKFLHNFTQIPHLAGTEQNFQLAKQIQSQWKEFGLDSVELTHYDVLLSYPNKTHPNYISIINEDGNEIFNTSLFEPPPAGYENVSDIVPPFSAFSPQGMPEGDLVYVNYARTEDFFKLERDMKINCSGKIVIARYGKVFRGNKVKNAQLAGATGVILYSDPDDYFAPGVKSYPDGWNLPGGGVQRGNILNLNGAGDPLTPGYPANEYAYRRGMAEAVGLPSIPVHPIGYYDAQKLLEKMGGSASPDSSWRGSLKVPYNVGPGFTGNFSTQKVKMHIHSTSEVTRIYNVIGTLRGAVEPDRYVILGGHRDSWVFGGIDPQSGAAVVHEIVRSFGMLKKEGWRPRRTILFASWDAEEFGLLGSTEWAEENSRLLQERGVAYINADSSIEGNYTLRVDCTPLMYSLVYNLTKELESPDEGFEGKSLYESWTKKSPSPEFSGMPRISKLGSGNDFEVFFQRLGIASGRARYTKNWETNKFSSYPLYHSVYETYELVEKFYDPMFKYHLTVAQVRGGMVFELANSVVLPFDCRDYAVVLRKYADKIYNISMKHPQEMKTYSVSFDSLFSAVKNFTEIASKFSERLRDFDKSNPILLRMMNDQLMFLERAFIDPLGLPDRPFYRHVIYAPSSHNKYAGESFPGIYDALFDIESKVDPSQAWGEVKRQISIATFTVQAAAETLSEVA
The test is described as follows: binding to cynoPSMA-Fc; method not described.

The target in test [2] is T2, human prostate specific membrane antigen (PSMA) (human, UniProt Q04609 1-750).
T2 construct: Endogenous PSMA on the human prostate cancer cell lines LNCaP, 22Rv1, MDA-PCA-2B and VCAP; also called human PSMA
Briefly: binding to LNCaP cells (flow cytometry, FIG. 9C). Background: A flow cytometer gives signals particle by particle.

Test [3] deals with T2, human prostate specific membrane …. Briefly: flow cytometry, direct binding to LNCaP cells (relative cell binding, MFI, against concentration in nM); the table under the plot labels the half-maximal concentration IC50; unit taken from the concentration axis.
The target of test [4] is T1, cynomolgus monkey PSMA-Fc fusion. Briefly: binding to cynoPSMA-Fc; method not described.
Test [5] has as its target T2, human prostate specific membrane …. Briefly: binding to LNCaP cells (flow cytometry, FIG. 8C).
Test [6] shares this target. Briefly: flow cytometry, direct binding to LNCaP cells (relative cell binding, MFI, against concentration in nM); the table under the plot labels the half-maximal concentration IC50; unit taken from the concentration axis. The source holds these as a separate data set.
Test [7] has the same target. The test is described as above. This is another data set of the same source.

T2 sequence (Q04609 whole entry): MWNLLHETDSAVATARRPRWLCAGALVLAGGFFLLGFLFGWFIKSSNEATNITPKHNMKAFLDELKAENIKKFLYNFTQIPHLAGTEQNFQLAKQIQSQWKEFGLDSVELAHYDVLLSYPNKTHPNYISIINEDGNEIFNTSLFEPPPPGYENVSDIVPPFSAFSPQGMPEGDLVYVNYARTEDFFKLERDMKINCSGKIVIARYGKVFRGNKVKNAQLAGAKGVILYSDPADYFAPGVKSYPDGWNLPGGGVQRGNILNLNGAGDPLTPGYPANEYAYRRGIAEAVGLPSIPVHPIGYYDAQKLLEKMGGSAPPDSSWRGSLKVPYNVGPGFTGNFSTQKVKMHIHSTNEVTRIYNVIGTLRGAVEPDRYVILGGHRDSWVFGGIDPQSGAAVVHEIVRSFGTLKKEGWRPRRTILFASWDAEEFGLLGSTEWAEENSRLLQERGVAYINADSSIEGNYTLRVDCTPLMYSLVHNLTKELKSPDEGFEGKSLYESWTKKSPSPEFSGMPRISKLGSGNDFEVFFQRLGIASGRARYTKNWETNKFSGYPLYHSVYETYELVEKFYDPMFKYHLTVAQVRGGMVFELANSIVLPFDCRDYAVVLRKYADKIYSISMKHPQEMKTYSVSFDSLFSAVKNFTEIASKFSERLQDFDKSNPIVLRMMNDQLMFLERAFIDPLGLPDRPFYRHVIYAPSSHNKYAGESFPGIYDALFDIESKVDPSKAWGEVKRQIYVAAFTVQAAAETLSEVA

B1: P258AR6P1071_D02 (designed binder)
chain: LPAPKNLVVSRVTEDSARLSWAIDEQRDWFESFLIQYQESEKVGEAIVLTVPGSERSYDLTGLKPGTEYTVSIYGVYHVYRSNPLSAIFTT
notes: not shown: C-terminal poly-histidine tag
Turning to B1, the values for the Kd in test [1] and in test [2] were 0.1 nM and approximately 0.025 nM, respectively. Also, the IC50 in test [3] is 1.32 nM.

B2: P233FR9_H10 PSMA binding FN3 domain (designed binder)
chain: LPAPKNLVVSRVTEDSARLSWTAPDAAFDSFAIGYWEWDDDGEAIVLTVPGSERSYDLTGLKPGTEYPVYIAGVKGGQWSFPLSAIFTT
notes: His-tagged, expressed in E. coli; also called H10 centyrin; not shown: C-terminal poly-histidine tag
For B2, the dissociation constant Kd in test [4] was 692 nM; in test [5], approximately 0.003 nM. The IC50 in test [6], in test [3] and in test [7] was 0.598 nM each time.

B3: P233FR9_H10_v18 (designed binder)
chain: B2 chain with G34A, E53C
notes: Optimized Centyrin; not shown: C-terminal poly-histidine tag
Molecule B3 registered an IC50 in test [7] of 0.608 nM.
